Experimental data from patent US20140187758A1.

Legend:
[1] = molecular target: European Corn Borer-cadherin (Ostrinia nubilalis)
[2] = molecular target: European Corn Borer-aminopeptidase 1 (Ostrinia nubilalis)

**Q.** Which Kd [1] does the source give for “Cry1Ac core toxin (trypsin-cleaved Cry1Ac holotoxin) (from UniProt P05068 29-623) (ligand)” here?
**A.** 48 nM

**Q.** And the Kd [2]?
**A.** 107 nM
